This is an account of results in patent US12644128B2, “Method for producing HSL protein having catalytic activity for 2-oxoglutaric acid-dependently oxidizing 4-HPPD inhibitor” (National Agriculture and Food Research Organization, priority 2017, dated 2026).

A short description of assay [1]: 4-HPPD inhibitor decomposition activity by HPLC, substrate BBC-OH. The class given is biochemical. The note with it: cell-free synthesized protein; FeCl2, ascorbic acid, 2-oxoglutarate; 30° C. for 3 hours; HPLC. From the text:
(§1) Then, the decomposition reaction of a 4-HPPD inhibitor was examined in the presence of divalent iron ions, 2-oxoglutarate, and molecular oxygen in a test tube by a method described later using the HIS1 protein prepared by this cell-free protein synthesis system.
(§2) Here, in commercially-available wheat germ extracts, dithiothreitol (DTT) is used as a reducing agent and a protein synthesizing reaction liquid also contains DTT. It was confirmed in advance by liquid chromatography that under the coexistence of divalent iron ions and ascorbic acid, which is a stabilizer for the divalent iron ions, DTT generated radical compounds and secondarily affected the enzyme reaction of HIS1 proteins. For this reason, in the present Example, an unreported protein synthesizing reaction system using Tris (2-carboxyethyl) phosphine (TCEP) as a reducing agent instead of DTT was newly constructed, with which the synthesis of HIS1 proteins and the like was conducted to examine the 4-HPPD inhibitor decomposition activity of these. The decomposition activity was analyzed on the reaction liquid of the protein and the 4-HPPD inhibitor using a high-performance liquid chromatography (mobile phase; 0.5% acetic acid water:acetonitrile=65:35, flow rate; 1 mL/min, feeding; isocratic, column; CAPCELL PAK ADME S5).
Then, the amounts of the synthesized proteins obtained in Examples 1 to 4 as described above were estimated as described below, followed by the analysis on the 4-HPPD inhibitor decomposition activities.
Cell-free protein synthesis was conducted without adding [^14C]-Leucine Leucine under the same conditions as those in the estimation of the synthesized amount to estimate the protein concentration of this translation reaction liquid from the above-described estimation. Then, 100 μl of the translation reaction liquid was subjected to buffer exchange to a basic translation buffer (30 mM HEPES-KOH (pH=7.8), 100 mM KOAc) by using the illustra MicroSpin G-25 column (manufactured by GE Healthcare). The amounts of the solution before and after the buffer exchange were measured and the estimated protein concentration was corrected.
An enzyme reaction liquid was prepared by mixing 250 mM of HEPES-KOH (pH 7.0) with a mixture liquid, which contained 0.25 mM of FeCl2, 1.5 mM of ascorbic acid, 1.5 mM of 2-oxoglutarate, and 0.75 mM of a substrate, and a translation reaction liquid, which contained a synthesized enzyme protein, in a proportion of 40% and 60%, respectively. After incubation at 30° C. for 3 hours, 100% methanol in the same amount as the enzyme reaction liquid was added and sufficiently mixed, followed by being left to stand for 5 minutes on ice. This was subjected to centrifuge separation (20, 400 g, 20 minutes, 4° C.) and the supernatant was passed through Cosmonice Filter W (0.45 μm) (manufactured by Nacalai Tesque, Inc.) to obtain a sample for high-performance liquid chromatography. The analysis on the substrate and the product before and after the enzyme reaction was conducted by loading a column_Pro C18 (150×4.6 mm I.D.) (manufactured by YMC Co., Ltd.) on a high-performance liquid chromatography device_ELITE LaChrom L-2000 series (manufactured by Hitachi, Ltd.). Elution was conducted at a flow speed of 1 mL/min and a column temperature of 40° C. under solvent conditions of acetonitrile:water (1% acetic acid)=55:45 or 50:50 (BBC-OH), acetonitrile:water (1% acetic acid)=45:55 (Sulcotrione), acetonitrile:water (1% acetic acid)=45:55 (Mesotrione), acetonitrile:water (1% acetic acid)=55:45 or 50:50 (tefryltrone), and acetonitrile:water (1% acetic acid)=55:45 or 50:50 (Tembotrione), respectively, and the compound was detected at an ultraviolet wavelength of 286 nm.
(§3) Note that the 5-point scale of the decomposition activity in each of FIGS. 12 to 17 is based on a relative value of the degree of decrease in a substrate-derived peak area detected by HPLC where the degree of decrease in the HIS1 protein was designated by 5. […]

Assay [2] is described as follows: 4-HPPD inhibitor decomposition activity by HPLC, substrate mesotrione. The note with it: cell-free synthesized protein, not shown in the figures. The assay is classed as biochemical. How it is done:
(§4) Then, the amounts of the synthesized proteins obtained in Examples 1 to 4 as described above were estimated as described below, followed by the analysis on the 4-HPPD inhibitor decomposition activities. Cell-free protein synthesis was conducted without adding [^14C]-Leucine Leucine under the same conditions as those in the estimation of the synthesized amount to estimate the protein concentration of this translation reaction liquid from the above-described estimation. Then, 100 μl of the translation reaction liquid was subjected to buffer exchange to a basic translation buffer (30 mM HEPES-KOH (pH=7.8), 100 mM KOAc) by using the illustra MicroSpin G-25 column (manufactured by GE Healthcare). The amounts of the solution before and after the buffer exchange were measured and the estimated protein concentration was corrected. […] Elution was conducted at a flow speed of 1 mL/min and a column temperature of 40° C. under solvent conditions of acetonitrile:water (1% acetic acid)=55:45 or 50:50 (BBC-OH), acetonitrile:water (1% acetic acid)=45:55 (Sulcotrione), acetonitrile:water (1% acetic acid)=45:55 (Mesotrione), acetonitrile:water (1% acetic acid)=55:45 or 50:50 (tefryltrone), and acetonitrile:water (1% acetic acid)=55:45 or 50:50 (Tembotrione), respectively, and the compound was detected at an ultraviolet wavelength of 286 nm.

Assay [3] can be described thus: 4-HPPD inhibitor decomposition activity by HPLC, substrate tembotrione. To be noted: cell-free synthesized protein, not shown in the figures. The class given is biochemical. On the procedure: as §4
Assay [4] deals with benzobicyclon-susceptible cultivar "Yamadawara". Nature of the assay: Resistance to BBC of rice expressing OsHSL1 or its F140H mutant. The note with it: T1 seeds, MS medium containing 0.25 μM BBC, 30° C., bright place, 8 days. The assay is classed as in vivo. On the procedure:
Next, the efficacy of the F140H mutation was confirmed using rice. Specifically, first, an mHSL1 gene obtained by modifying phenylalanine at position 140 in a rice HSL1 cDNA gene to histidine was prepared. Subsequently, the mutated gene or an HSL1 gene in which the mutation was not introduced was linked to downstream of the 35S promoter and was cloned together with a hygromycin-resistance gene expression cassette in the binary vector. Then, these vectors were each introduced into a benzobicyclon-susceptible cultivar “Yamadawara” by an agrobacterium method and recombinant rice was grown.
The recombinant rice (T1) seeds thus produced and the seeds of the original cultivar “Yamadawara” were tested and seeded on an MS medium containing 0.25 μM BBC in a sterile manner and grown at 30° C. in a bright place for 8 days.

The nature of assay [5]: 4-HPPD inhibitor decomposition activity by HPLC, substrate sulcotrione. The class given is biochemical. The note with it: cell-free synthesized protein; FeCl2, ascorbic acid, 2-oxoglutarate; 30° C. for 3 hours; HPLC.
Excerpt: as §1
as §2, with “S5). […]” for “S5).”
(§5) Cell-free protein synthesis was conducted without adding [^14C]-Leucine Leucine under the same conditions as those in the estimation of the synthesized amount to estimate the protein concentration of this translation reaction liquid from the above-described estimation. […] The amounts of the solution before and after the buffer exchange were measured and the estimated protein concentration was corrected. […]
as §3

Assay [6] can be described thus: 4-HPPD inhibitor decomposition activity by HPLC, substrate tefuryltrione. The note with it: cell-free synthesized protein; FeCl2, ascorbic acid, 2-oxoglutarate; 30° C. for 3 hours; HPLC. The class given is biochemical.
Excerpt: as §1
as §2, with “S5). […]” for “S5).”
as §5, §3

Entries after “also recorded” stand apart in the source; their conditions may differ.

B1: OsHSL1 protein: rice-derived HSL protein, typically a protein having an amino acid sequence of SEQ ID NO: 4 (protein, listed as Oryza sativa)
chain: MADESWRTPAIVQELAAAGVEEPPSRYVLGEKDRSDELVAAELPEPIPVVDLSRLAGADEAAKLRAALQNWGFFLLTNHGVETSLMDDVLNLAREFFNQPIERKRKFSNLIDGKNFQVEGYGTDRVVTQDQILDWSDRLFLRVEPKEERNLAFWPDHPESFRDVLNEYASRTKRIRDDIVQAMSKLLGLDEDYFFDRLNKAPALARFNYYPPCPRPDLVFGVRPHSDGSLFTILLVDEDVGGLQIQRDGKWYNVQVTPNTLLINLGDTMEVLCNGIFRSPVHRVVTNAERERISLAMFYSVNDEKDIGPAAGLLDENRPARYRKVSVGEFRAGIIGKFSRRERYIDSLKI
Turning to B1, in assay [1], the BBC-OH decomposition activity result is on record as “hardly observed; also recorded: only very weak decomposition activity”. Moreover, the mesotrione decomposition activity entry in assay [2] is “only very weak decomposition activity”. In addition, the tembotrione decomposition activity result in assay [3] is recorded as “only very weak decomposition activity”. Further, in assay [4], the “BBC resistance (growth condition)” value is “whitened”. In assay [5], the sulcotrione decomposition activity entry is recorded as “hardly observed; also recorded: only very weak decomposition activity”. Besides, the tefuryltrione decomposition activity entry in assay [6] is listed as “lower than that of the HIS1 protein; also recorded: had the decomposition activity, which was less effective than that of the HIS1 protein”.
